From US11285283B2, “Methods for generating and delivering droplets to the pulmonary system using a droplet delivery device” (PNEUMA RESPIRATORY, INC., priority 2016, dated 2022)
“And” between values parts separate entries of the source, which are not always exact repeats. Equal entries are not always repeated. One block for each compound: values may come before it.

Tests used:
[1] = tested on: patients with cystic fibrosis; settings: cited from earlier work
[2] = Anderson Cascade Impactor testing of droplet delivery device with Albuterol sulfate (Example B); type: physicochemical
[3] = Insulin stability after aerosol generation, size exclusion chromatography; type: physicochemical
Source text: Alternately, to determine the stability of active agent after droplet generation, the generated stream of droplets including the active agent may be collected and SEC-HPLIC may be employed to monitor for any changes in large molecule aggregation and protein fragment content. Soluble protein aggregates and protein fragment content may be calculated by comparing respective peak area under the SEC-HPLC curve of dispensed protein solutions with controls (solutions remaining in the device reservoir).
Drug solutions for testing include Enbrel, (ENBREL® single-use prefilled syringes in 25 mg (0.51 mL of a 50 mg/mL solution of etanercept), and insulin, (Humalog, 200 units/ml, 3 ml kwikpens)
To calculate and compare effects of droplet generation through an ejector mechanism of the disclosure, the total area under the curve of the UV signal at 280 nm versus elution time for controls is compared with the aerosolized samples, which is set to 100%.
Aerosol collection and SEC is performed in a similar fashion as for the Enbrel analysis and aerosol collection.
Fifty microliters of the collected aerosol spray is injected onto the SEC column for analysis, while 50 mcl of the Kwikpen insulin solution is injected onto the SEC column for control samples.

[4] = Gel electrophoresis of active agent after droplet generation; type: physicochemical; settings: after droplet generation with the device
Source text: To determine the stability of active agent after droplet generation, the generated stream of droplets including the active agent is collected and the molecular weight of the active agent is verified using gel electrophoresis.

[5] = Enbrel stability after aerosol generation, size exclusion chromatography; type: physicochemical; settings: for Peak 1 Peak Area % / Peak 2 Peak Area % / Peak 3 Peak Area % / Peak 4 Peak Area % / Peak 5 Peak Area %: replicate samples
Source text: Alternately, to determine the stability of active agent after droplet generation, the generated stream of droplets including the active agent may be collected and […] may be employed to monitor for any changes in large molecule aggregation and protein fragment content. Soluble protein aggregates and protein fragment content may be calculated by comparing respective peak area under the SEC-HPLC curve of dispensed protein solutions with controls (solutions remaining in the device reservoir). Drug solutions for testing include Enbrel, (ENBREL® single-use prefilled syringes in 25 mg (0.51 mL of a 50 mg/mL solution of etanercept), and insulin, (Humalog, 200 units/ml, 3 ml […] is performed with a YarraTM 3 μm SEC-2000 LC column 300×7.8 mm, SecurityGuard cartridge kit and SecurityGuard cartridges GFC-2000, 4×3 mm ID. Fifty microliters of Enbrel from the syringe (ENBREL® single-use prefilled syringes in 25 mg/0.51 mL of a 50 mg/mL solution of etanercept) is diluted (4:1) (4 parts, 200 mcl of the mobile phase buffer solution to 1 part, 50 mcl Enbrel from syringe). Fifty microliter of the diluted Enbrel is injected and separation was performed at a flow rate of 1.0 ml/min. The mobile phase buffer system included a PHOS. BUFF. SALINE. […] UV detection is performed at 280 nm. […] An ampule/cartridge is filled with […] of Enbrel® (50 mg/ml) diluted 4:1 (10 mg/ml)(4 parts (200 mcl) of PBS and 0.025% NaN3 and 1 part (50 mcl of Enbrel solution from the syringe). After 20 actuations and aerosolization, about 150 mcl of the aerosolized Enbrel solution is recovered and collected in the polypropylene tube located below the ejector mechanism. The control consists of the diluted Enbrel solution, 50 mcl of which is injected into the SEC column for analysis.

[6] = Albuterol 0.5%, 28.3 lpm, 10 actuations
[7] = aerosolized, average of S1 and S2

Compound: NC[C@H]1O[C@H](O[C@H]2[C@H](O)[C@@H](O[C@H]3O[C@H](CO)[C@@H](O)[C@H](N)[C@H]3O)[C@H](N)C[C@@H]2N)[C@H](N)C[C@@H]1O [tobramycin]
pulmonary function after administration by inhalation ([1]; inhalation, without severe side effects to kidney functions): significantly improves pulmonary function
serum levels after intravenous administration ([1]; intravenous administration): toxic to the kidneys

droplets of an average diameter of less than about 5 μm [2, 6]: over 75%
droplets with an average diameter of less than about 4 μm [2, 6]: over 70%
Cum. % < ([2]; FILTER): 0.00%
Cum. % > ([2]; FILTER): 100.00%
Cum. % < ([2]; Pre-separator, cut diam. 10 μm): 100.00%
Cum. % > ([2]; Pre-separator, cut diam. 10 μm): 0.00%
Compound: Albuterol sulfate

Compound: Insulin: insulin, Humalog, 200 units/ml, 3 ml kwikpens
ejected dose forming a fragment which elutes at ~25 minutes ([3]; aerosolized with test device): 2.5%
Peak 1 Peak Area % ([3]; aerosolized with test device, 20 actuations, replicate samples): 27.881% and 28.721%
Peak 2 Peak Area % ([3]; aerosolized with test device, replicate samples): 69.780% and 67.807%
Peak 3 Peak Area % ([3]; aerosolized with test device, replicate samples, fragment, elution ~25 min): 2.184% and 2.797%
Peak 3 Peak Area %, Avg. [3, 7]: 2.4905
Peak 1 Peak Area % ([3]; control, Kwikpen solution 200 U/ml, not aerosolized): 29.926%
Peak 2 Peak Area % ([3]; control, not aerosolized): 69.630%
Peak 3 Peak Area % ([3]; control, not aerosolized): 0%

Compound: adalimumab
change in electrophoretic mobility / molecular weight of post-aerosol active agent versus control [4]: negligible change

Compound: bevacizumab
change in electrophoretic mobility / molecular weight of post-aerosol active agent versus control [4]: negligible change

Compound: etanercept [Enbrel]
dose forming molecular fragments with elution times of 13 and 25 minutes ([5]; aerosolized with test device): 4.6%
Peak 1 Peak Area % ([5]; aerosolized with test device, 20 actuations): 3.476% and 2.796%
Peak 2 Peak Area % ([5]; aerosolized with test device): 92.112% and 90.789%
Peak 3 Peak Area % ([5]; aerosolized with test device): 0.361% and 0.424%
Peak 4 Peak Area % ([5]; aerosolized with test device, fragment, elution about 13 min): 0.352% and 0.357%
Peak 5 Peak Area % ([5]; aerosolized with test device, fragment, elution about 25 min): 3.428% and 5.130% and 5.123%
Peak 4 Peak Area %, Avg. [5, 7]: 0.3545
Peak 5 Peak Area %, Avg. [5, 7]: 4.2755
Peak 1 Peak Area % ([5]; control, Enbrel diluted 4:1 (10 mg/ml), not aerosolized): 2.428% and 3.041%
Peak 2 Peak Area % ([5]; control, not aerosolized): 96.676% and 95.909%
Peak 3 Peak Area % ([5]; control, not aerosolized): 0.373% and 0.351%
Peak 4 Peak Area % ([5]; control, not aerosolized): 0%
Peak 5 Peak Area % ([5]; control, not aerosolized): 0%
change in electrophoretic mobility / molecular weight of post-aerosol active agent versus control [4]: negligible change
